Measured values reported in publication PMC3817407.

How the values were obtained:
[1] = target: T1, ECF14_1324
T1 chain: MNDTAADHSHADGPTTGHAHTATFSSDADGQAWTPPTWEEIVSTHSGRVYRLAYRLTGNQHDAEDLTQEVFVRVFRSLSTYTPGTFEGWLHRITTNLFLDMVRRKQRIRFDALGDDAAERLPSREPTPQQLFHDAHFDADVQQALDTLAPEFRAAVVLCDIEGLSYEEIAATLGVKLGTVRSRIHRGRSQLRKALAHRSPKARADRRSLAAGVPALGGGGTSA

[2] = target: T2, ECF15_436
T2 chain: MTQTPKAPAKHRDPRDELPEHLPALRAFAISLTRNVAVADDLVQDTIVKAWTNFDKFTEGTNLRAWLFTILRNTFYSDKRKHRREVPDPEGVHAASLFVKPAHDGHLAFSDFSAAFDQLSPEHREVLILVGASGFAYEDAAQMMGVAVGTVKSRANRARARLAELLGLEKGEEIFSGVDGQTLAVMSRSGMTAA

[3] = target: T3, ECF33_423
T3 chain: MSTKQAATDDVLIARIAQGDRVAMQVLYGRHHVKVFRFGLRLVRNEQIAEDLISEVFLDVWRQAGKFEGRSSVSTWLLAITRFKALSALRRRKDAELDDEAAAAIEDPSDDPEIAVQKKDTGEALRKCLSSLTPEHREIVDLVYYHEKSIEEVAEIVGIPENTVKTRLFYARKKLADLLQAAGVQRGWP

[4] = target: T4, ECF11_987
T4 chain: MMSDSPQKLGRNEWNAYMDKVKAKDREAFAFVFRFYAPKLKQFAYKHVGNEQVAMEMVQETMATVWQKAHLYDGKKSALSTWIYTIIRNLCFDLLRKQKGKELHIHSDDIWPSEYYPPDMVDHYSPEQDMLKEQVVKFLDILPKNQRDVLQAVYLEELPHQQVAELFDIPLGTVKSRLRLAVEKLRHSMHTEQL

[5] = target: T5, ECF02_915
T5 chain: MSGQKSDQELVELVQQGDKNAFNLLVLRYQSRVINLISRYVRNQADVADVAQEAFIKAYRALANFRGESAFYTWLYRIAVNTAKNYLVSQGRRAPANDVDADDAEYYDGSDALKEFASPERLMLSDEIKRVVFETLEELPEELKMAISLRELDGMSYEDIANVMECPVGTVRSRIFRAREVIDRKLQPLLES

[6] = target: T6, ECF12_807
T6 chain: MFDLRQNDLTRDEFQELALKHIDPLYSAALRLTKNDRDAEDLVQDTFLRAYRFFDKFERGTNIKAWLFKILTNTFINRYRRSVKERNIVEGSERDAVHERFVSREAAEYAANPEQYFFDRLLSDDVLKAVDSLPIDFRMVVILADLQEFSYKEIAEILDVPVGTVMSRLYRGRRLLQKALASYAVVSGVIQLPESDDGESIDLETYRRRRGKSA

B1: AS25_1643_cl43 (protein)
chain: MTTDSNFNDPCRRQFSRDLPQKMARHTNEATGAMDMVKRDRFELLSAYLGGEVTAAERRQVEDWPANDVAVQRLYSRLLKLRQGIRTMPIPTAQQSPETTAEQVFAKVNRRSRLAWKLGGAAVAACVIGAVTNWLPGRQTGIPQLAQQPQEQPTQAVTTPDALPMIALNNPVIEIPKAAVASPTKFIQPQPQLGEIPPDIN
[1]
  fold repression: 1.77
[2]
  fold repression: 1.2
[3]
  fold repression: 1.23
[4]
  fold repression: 2.43
[5]
  fold repression: 6.67
[6]
  fold repression: 4.23

B2: AS27_4265 (protein)
chain: MTGHPDVAEIADLAEGLLPTTRTTEVRQHLESCELCADVYASLTEIQGLLGTLPAPAPMPDDVAARIDAALAAEPPLGIADGTRVSRETSTPADRPAGHARPSSTGPGRKDRRRGGRRRIAVLGAVAAAAAIGIGSVVVSSLTEDSSSGNTAREQQTAIADTFSEGRLKDRVTNLVADGSAENGSRTPRSFGMESENGGETAENHVFKQPTVPECIRKGIGRDDAVIATEPGVYKGREALLVVLPDATNDTQVTAYIVETACVDQPAVGKAKILLEHSYARS
[1]
  fold repression: 3.08
[2]
  fold repression: 3.65
[3]
  fold repression: 1.63
[4]
  fold repression: 5.93
[5]
  fold repression: 2.41
[6]
  fold repression: 8.59

B3: AS27_1331 (protein)
chain: MSAADKDPDKHSADADPPLTVELLADLQAGLLDDATAARIRSRVRSDPQAQQILRALNRVRRDVAAMGADPAWGPAARPAVVDSISAALRSARPNSSPGAAHAARPHVHPVRMIAGAAGLCAVATAIGVGAVVDAPPPAPSAPTTAQHITVSKPAPVIPLSRPQVLDLLHHTPDYGPPGGPLGDPSRRTSCLSGLGYPASTPVLGAQPIDIDARPAVLLVIPADTPDKLAVFAVAPHCSAADTGLLASTVVPRA
[1]
  fold repression: 5.93
[2]
  fold repression: 4.26
[3]
  fold repression: 5.1
[4]
  fold repression: 5.69
[5]
  fold repression: 2.72
[6]
  fold repression: 2.07

B4: AS22_4450 (protein)
chain: MELDDMKHAWQTLEQRLDQQAAQTGQLLGVVHEETVRSSLRPLWVAQTAQLLCALALAIVSARSWIPHTDQPVAVIGGVLLQAWCMALAISAMVQLQLLTQFNVAGPLLRTQHALARLRRWRTRVAPWLGVAFWVLWIAVADALWRALTGQTLPTDWLVLNLLVGVAGGIGTWLGFRRLQRAQHPWLERIDRAHAGTGVIRAERMLEEIARFQRD
[1]
  fold repression: 2.85
[2]
  fold repression: 1.41
[3]
  fold repression: 1.24
[4]
  fold repression: 1.89
[5]
  fold repression: 2.12
[6]
  fold repression: 1.67

B5: AS25_1645 (protein)
chain: MNESFSQRQTDGDRRRGGDLEMKKNHTSHQHHTDSETPMGHNFEQFQRLSAYFDGEATPAERKEIQHLLDTDPQVKQQYQQLRQLKQALQLLPIPTSISAQYLGQRVLARLRRSQLRTLSLWGSGAIAALFVAGVMGQMPRLNFDRFAKNDPDQQPTAALVETSPQGEEALVVALNRPVLQIPKLATTESP
[1]
  fold repression: 18.7
[2]
  fold repression: 8.62
[3]
  fold repression: 4.92
[4]
  fold repression: 8.87
[5]
  fold repression: 6.91
[6]
  fold repression: 9.09

B6: AS31_34 (protein)
chain: MNKEKLSDHLKSEWKKIDQTANPSIPNQKELLHQLSQMKAEYRKKLLQEIILFVFCALMVVSAAILAFTQAPAVFIVLQVCVLAVLPILIAAEKKRHLGECEVKRG
[1]
  fold repression: 6.35
[2]
  fold repression: 2.54
[3]
  fold repression: 2.25
[4]
  fold repression: 3.03
[5]
  fold repression: 1.32
[6]
  fold repression: 3.66

B7: AS16_973 (protein)
chain: MKTDDLIALLAAGEGPVPRHAVGRRMAVAALGGLTAALLLTITLYGVRSDITEVAQTPLFWGKVAFPTSLALIGLWLTSRLARPGGKGAAGWKMLGLPLLLVWCGAAVSIAGAPVDARADLLFGRTWRTCALNIALLSVPAFVTVFWALKGLAPTRLRLAGAAGGLLAGSSATVAYCLHCPEMGVPFWGVWYVLGMLVPTVLGAWWGPRMLRW
[1]
  fold repression: 0.887
[2]
  fold repression: 0.884
[3]
  fold repression: 0.683
[4]
  fold repression: 1.32
[5]
  fold repression: 0.403
[6]
  fold repression: 0.905

B8: AS16_3622 (protein)
chain: MMKTDELISLLATAEGPVDRHALARRLGLALLAGLLGALLLTVALYGVRSDLAEVARTPLFWAKVALPTSLALLGLWLTQRLARPGVRGGALWGLLGVPLLLVWLGAAISLFGAPPEARADLIFGRTWRTCALNITLLSTPVFIAVFWALRGLAPTRLRQAGAAGGLLAGSTATLVYCLHCPEMGVPFWGLWYLLGMLVPTLLGAVLGPRLLRW
[1]
  fold repression: 8.8
[2]
  fold repression: 4.75
[3]
  fold repression: 1.87
[4]
  fold repression: 4.23
[5]
  fold repression: 1.26
[6]
  fold repression: 7.12

B9: AS20_992 (protein)
chain: MTPERFVHLADAYGADLQRWPSAERAAAQALLDCGDAQAVAALRQAHWLDSQLDRYQVPAPSPALAQRIIAAAQQPGAPFWSRYAGWLASLGWVGVGLTGVAAGMLAVALSLPLSTSAEALPSVFDQSDAEFVLSINAEEAEQ
[1]
  fold repression: 1.64
[2]
  fold repression: 1.32
[3]
  fold repression: 1.32
[4]
  fold repression: 2.81
[5]
  fold repression: 1.93
[6]
  fold repression: 1.4

B10: AS22_1147 (protein)
chain: MELDDIAVAWRSLEQRLDQHAALAGQVLGDLRSHAARAHLRPLWLSQSAQLLCAIALSGLVAHSWLAFPEQAAAIVGGVLLQIWCVALAASAARQLWLLSQLDFARPLLQTQRALAQLRRWRTRVAPWLGVAFWVLWVAVADAAWRALTGRSLPYAWLLCNLLVGVLGGIGTWLGYRRLQRSGHPWLERLDTVHAGRSVARTETLLEQIARFQRE
[1]
  fold repression: 4.18
[2]
  fold repression: 3.01
[3]
  fold repression: 1.76
[4]
  fold repression: 3.16
[5]
  fold repression: 3.59
[6]
  fold repression: 3.45

B11: AS30_35 (protein)
chain: MDKRLQQLREEYKNVQIPKELDIIVEKALQQEPKKKRIVMWPTSAAIAAAILFTALVNINPDAAQAMSKIPVIGKIVKAITFIEIKEEKDQSSIDVKTPALSGLSNKELENSINEKYLKESQQLYKEFIQSTSKNKKGHLSIYSDYETVTDTPDLLSIRRNIETTQASSYTQSRYITIDKKNDILLTLKSLFKDERYIKVISQNIKEQMKQQMKEDPNKIYWLTDEDAEPFKTILPDQTFYITEDHKLVISFDEYEVAPGYMGVTEFTIPTGVISNLLVGERYIR
[1]
  fold repression: 1.7
[2]
  fold repression: 1.98
[3]
  fold repression: 1.99
[4]
  fold repression: 2.11
[5]
  fold repression: 2.15
[6]
  fold repression: 3.12

B12: AS02_915 (protein)
chain: MEKTGQEWVSASVDGETDRQTLAELAADTDSHAKWQRYHLMGDAMRDELPQAMPLDLSARIAAALEDEPTILAPKVEREATQAPSRAVVVPFMRQLGQYGIAAAVALMAVVGVQNYQSTQDDAPLPVLNTRPLVGTATPVSLQTGPVANQNQGNANDQLLEQRRRINAYLQDHMLQQRLNTGAVVDDNSEVTPIPVNR
[1]
  fold repression: 4.42
[2]
  fold repression: 3.47
[3]
  fold repression: 2.28
[4]
  fold repression: 3.88
[5]
  fold repression: 29.2
[6]
  fold repression: 9.79

B13: AS33_423 (protein)
chain: MMAMSNTMPDPREPGDVEALLPWYAAGTLNARDARRVADALDRDPALARQYAVILEEYASTIELNESLGAPSSRAMQKLFAAIDAEPARAPGAGQGLGARFAGFFAGLSPKALAWSASVAGLALLLQAGLIGALLTWPHAAPVQTAAYQPQREVARAPASSPAPATVSPPAAAMADRAADAGKSTPPMVMAERSGGPVVRSLAPQSGPRVLVKFAPEARASEIAALLDQYNAVVVDSSRGGLFRLQFGTQSLSKQDQETLIGRLQKEPVVSVVLSAP
[1]
  fold repression: 36
[2]
  fold repression: 14.3
[3]
  fold repression: 84.3
[4]
  fold repression: 13.7
[5]
  fold repression: 4.97
[6]
  fold repression: 6.47

B14: AS33_375 (protein)
chain: MMALSKKMLEQEPSEIELLLPWHAAGTLNARDARRVEDALARDPELAKQYAAIRGEYEETIHLNESLGAPSARAMQKLFGAIDAEPARETGSLPLSARIATFFASLSPRTLAWSASLGAVALVLQAGIIGAVLMKTQPTTFQTASLSTSAPITRELGAAVAPARALVRFTPEARVADITALLDSYQASIIGDAKGGMFRLQFDKAMSQDELASLLGRMQREKFVNLAVAAP
[1]
  fold repression: 44.6
[2]
  fold repression: 20.3
[3]
  fold repression: 113
[4]
  fold repression: 17.1
[5]
  fold repression: 4.71
[6]
  fold repression: 7.97
